Like-named read-outs stand apart in the source and are kept apart here.
Molecular target: His-tagged hACE2 protein (human) (UniProt Q9BYF1)
Test: SPR

His-tagged hACE2 protein (human), sequence (Q9BYF1 18-740): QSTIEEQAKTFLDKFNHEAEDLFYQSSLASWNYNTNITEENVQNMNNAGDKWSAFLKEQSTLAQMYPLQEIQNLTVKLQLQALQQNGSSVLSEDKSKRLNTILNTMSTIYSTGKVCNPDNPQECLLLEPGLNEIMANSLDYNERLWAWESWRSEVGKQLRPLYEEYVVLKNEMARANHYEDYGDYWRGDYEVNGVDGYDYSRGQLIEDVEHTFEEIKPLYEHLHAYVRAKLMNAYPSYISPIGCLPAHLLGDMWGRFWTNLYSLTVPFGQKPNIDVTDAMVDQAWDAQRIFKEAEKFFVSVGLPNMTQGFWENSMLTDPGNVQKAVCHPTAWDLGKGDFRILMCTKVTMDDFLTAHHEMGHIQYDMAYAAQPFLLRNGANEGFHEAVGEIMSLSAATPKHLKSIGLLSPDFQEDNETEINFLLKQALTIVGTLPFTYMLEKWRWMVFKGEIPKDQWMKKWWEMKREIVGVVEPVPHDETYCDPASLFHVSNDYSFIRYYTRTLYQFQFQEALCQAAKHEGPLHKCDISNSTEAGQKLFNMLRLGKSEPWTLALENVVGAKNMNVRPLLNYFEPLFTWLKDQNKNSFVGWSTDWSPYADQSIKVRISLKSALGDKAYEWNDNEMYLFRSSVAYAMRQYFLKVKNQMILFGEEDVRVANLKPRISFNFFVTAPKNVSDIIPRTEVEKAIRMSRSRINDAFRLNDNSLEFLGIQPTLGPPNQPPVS

Substance | Kd [nM] | Kd (Fc fusion) [nM]
RBD | 7.98 | –
Human IFNα-RBD-Fc | 12.3 | –
RBD-Fc | 11.5 | –
mouse IFNα-Pan-RBD-Fc fusion protein (I-P-R-F) (from UniProt P0DTC2 319-541) | – | 11

— PMC8280646
